Source: PMC5662698 (2017)
No end group written: not given here.

T1: DnaK-C15A/M404C/T437C (Escherichia coli (strain K12))
T1 chain: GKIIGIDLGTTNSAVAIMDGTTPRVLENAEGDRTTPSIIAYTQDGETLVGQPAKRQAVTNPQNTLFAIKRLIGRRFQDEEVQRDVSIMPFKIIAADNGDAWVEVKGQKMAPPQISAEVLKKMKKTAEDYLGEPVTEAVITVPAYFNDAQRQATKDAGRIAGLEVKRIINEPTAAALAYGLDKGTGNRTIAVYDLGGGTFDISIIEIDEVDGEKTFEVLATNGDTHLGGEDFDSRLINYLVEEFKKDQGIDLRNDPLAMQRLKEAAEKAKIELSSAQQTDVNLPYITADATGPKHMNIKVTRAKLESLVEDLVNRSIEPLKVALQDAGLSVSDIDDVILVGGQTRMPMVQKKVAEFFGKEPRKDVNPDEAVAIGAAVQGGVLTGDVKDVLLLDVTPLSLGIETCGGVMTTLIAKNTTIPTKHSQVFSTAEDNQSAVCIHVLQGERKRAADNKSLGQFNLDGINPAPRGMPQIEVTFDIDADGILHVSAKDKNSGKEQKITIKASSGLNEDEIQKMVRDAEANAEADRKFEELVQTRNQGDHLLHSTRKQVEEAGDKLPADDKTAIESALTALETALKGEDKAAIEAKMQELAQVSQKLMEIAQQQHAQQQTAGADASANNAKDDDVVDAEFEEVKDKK

B1: DnaJ (natural protein)
chain: MAKQDYYEILGVSKTAEEREIRKAYKRLAMKYHPDRNQGDKEAEAKFKEIKEAYEVLTDSQKRAAYDQYGHAAFEQGGMGGGGFGGGADFSDIFGDVFGDIFGGGRGRQRAARGADLRYNMELTLEEAVRGVTKEIRIPTLEECDVCHGSGAKPGTQPQTCPTCHGSGQVQMRQGFFAVQQTCPHCQGRGTLIKDPCNKCHGHGRVERSKTLSVKIPAGVDTGDRIRLAGEGEAGEHGAPAGDLYVQVQVKQHPIFEREGNNLYCEVPINFAMAALGGEIEVPTLDGRVKLKVPGETQTGKLFRMRGKGVKSVRGGAQGDLLCRVVVETPVGLNERQKQLLQELQESFGGPTGEHNSPRSKSFFDGVKKFFDDLTR

Experiments:
[1] = target: TMR-labeled DnaK (DnaK FRET construct C15A/M404C/T437C labelled with tetramethylrhodamine) (E. coli, UniProt P0A6Y8 1-638, C15A | M404C | T437C, tetramethylrhodamine (TMR, from 5-IATR) on both introduced cysteines (M404C, T437C)); assay: ATP
DnaK-C15A/M404C/T437C = target: T1, DnaK-C15A/M404C/T437C; assay: FP
BiP-C41A/C420A = BiP-C41A/C420A (Homo sapiens); assay: FP
human BiP, wild type = human BiP, wild type (human, UniProt P11021 19-654); assay: FP
[2] = target: BiP FRET construct BiP-C41A/C420A/V429C/T462C (human, UniProt P11021 19-654, C41A | C420A | V429C | T462C); assay: FP
[3] = target: BiP EPR construct BiP-C41A/C420A/V429C (human, UniProt P11021 19-654, C41A | C420A | V429C); assay: FP
Sequence of BiP EPR construct BiP-C41A/C420A/V429C (P11021 19-654 C41A/C420A/V429C): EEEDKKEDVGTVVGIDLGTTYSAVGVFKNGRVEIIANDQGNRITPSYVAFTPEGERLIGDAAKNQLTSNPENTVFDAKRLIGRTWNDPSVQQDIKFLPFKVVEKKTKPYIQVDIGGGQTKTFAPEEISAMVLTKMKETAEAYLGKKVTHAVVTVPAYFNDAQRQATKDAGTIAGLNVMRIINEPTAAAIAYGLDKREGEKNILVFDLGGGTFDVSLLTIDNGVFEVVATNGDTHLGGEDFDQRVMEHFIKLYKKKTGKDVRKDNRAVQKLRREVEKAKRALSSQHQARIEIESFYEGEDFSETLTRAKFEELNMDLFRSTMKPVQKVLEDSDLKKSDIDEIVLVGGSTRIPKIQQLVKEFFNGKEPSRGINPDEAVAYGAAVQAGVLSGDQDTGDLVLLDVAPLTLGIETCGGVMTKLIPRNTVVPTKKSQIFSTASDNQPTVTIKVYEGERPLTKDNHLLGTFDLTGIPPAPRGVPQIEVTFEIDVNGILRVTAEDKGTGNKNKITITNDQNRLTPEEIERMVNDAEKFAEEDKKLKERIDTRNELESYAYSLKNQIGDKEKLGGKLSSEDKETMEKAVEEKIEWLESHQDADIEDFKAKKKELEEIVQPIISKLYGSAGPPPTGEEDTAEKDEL

Sequence of human BiP, wild type (P11021 19-654): as the sequence (P11021 19-654 C41A/C420A/V429C) above, with A23C, A402C, C411V counted along it
Sequence of BiP FRET construct BiP-C41A/C420A/V429C/T462C (P11021 19-654 C41A/C420A/V429C/T462C): as the sequence (P11021 19-654 C41A/C420A/V429C) above, with T444C counted along it
Sequence of BiP-C41A/C420A (Homo sapiens) (chain, as listed by the source C41A C420A): as the sequence (P11021 19-654 C41A/C420A/V429C) above, with C411V counted along it

Row | Binder | Kd [1] | Kd (DnaK-C15A/M404C/T437C) | Kd (BiP-C41A/C420A) | Kd (human BiP, wild type) | Kd [2] | Kd [3]
1 | B1 | 182 nM | – | – | – | – | –
2 | fluorescein-NRLLLTG [NR peptide (NRLLLTG), fluorescein-labelled] | – | 2120 nM | 850 nM | 910 nM | 610 nM | 820 nM
